Target: phosphoinositol 3-kinase (PI3-kinase), p85 subunit (human (endogenous in AGS)) (UniProt P27986)
Chain of UniProt P27986 (P27986 whole entry): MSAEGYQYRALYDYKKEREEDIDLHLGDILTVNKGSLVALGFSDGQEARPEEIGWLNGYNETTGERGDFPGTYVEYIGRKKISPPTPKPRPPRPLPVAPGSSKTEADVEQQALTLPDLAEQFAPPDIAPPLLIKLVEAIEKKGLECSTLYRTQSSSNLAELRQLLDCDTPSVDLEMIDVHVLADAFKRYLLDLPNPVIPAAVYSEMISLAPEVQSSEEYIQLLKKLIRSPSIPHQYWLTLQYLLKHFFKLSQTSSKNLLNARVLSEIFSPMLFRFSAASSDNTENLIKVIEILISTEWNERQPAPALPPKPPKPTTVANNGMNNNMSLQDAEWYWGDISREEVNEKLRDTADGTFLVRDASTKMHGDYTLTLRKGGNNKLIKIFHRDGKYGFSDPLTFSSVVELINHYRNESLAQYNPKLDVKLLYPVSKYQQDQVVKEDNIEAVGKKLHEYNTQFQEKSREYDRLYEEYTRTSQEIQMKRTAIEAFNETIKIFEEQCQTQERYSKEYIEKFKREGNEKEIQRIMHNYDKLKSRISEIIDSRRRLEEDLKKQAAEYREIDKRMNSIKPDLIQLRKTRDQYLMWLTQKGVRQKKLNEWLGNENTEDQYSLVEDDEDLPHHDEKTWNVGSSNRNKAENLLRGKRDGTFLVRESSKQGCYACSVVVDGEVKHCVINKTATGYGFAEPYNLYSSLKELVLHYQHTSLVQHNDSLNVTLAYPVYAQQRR

CagA of H. pylori strain 147C with EPIYT B-TPM (wild-type 147C sequence), HA fusion (natural protein)
phosphorylation of AKT at threonine 308 in AGS cells after 24 h co-culture with the EPIYT isogenic strain (immunoblot, fold): 2.4 fold

CagA of H. pylori strain 147C with EPIYA B-TPM, HA fusion (natural protein)
phosphorylation of AKT at threonine 308 in AGS cells after 24 h co-culture with the EPIYA isogenic strain (immunoblot, fold): 1.7 fold

— article PMC4412286
